In series [1] the target is recombinant carbonic anhydrase (SEQ ID NO: 4) from Bacillus sp. P203 (Alkalicoccobacillus plakortidis, UniProt A0ABT0XM38). The following applies: read-out: IC50, inhibition of recombinant carbonic anhydrase; purified recombinant enzyme from Bacillus sp. P203.
Experimental: A standard assay contained 900 microliter of PNPA, 10 microliter of 300 mM Tris pH 7.5 and 90 microliter of carbonic anhydrase protein solution. After a pre-incubation for 5 min, the enzyme was added to the PNPA buffer mixture and the increase in absorbance (due to the hydrolysis of the substrate and release of p-nitrophenol) at 348 nm was monitored photometrically in a quartz cuvette over a period of 10 min. As a positive control for both activity assays, a solution of bovine carbonic anhydrase (Calbiochem, 1 mg per mL) may be used.
Enzyme was pre-incubated with 1 mM of the substances for 1 h on ice in a total volume of 50 micro liter before testing activity with 10 micro liter of the mixture with the Wilbur and Anderson, 1948 method. The control with no additives (water) was set to 100% activity. […] Instead activity with 25 micro molar concentration of the chemicals are given.
The nature of series [2]: Temperature and storage stability of purified recombinant carbonic anhydrase (residual activity). The series is classed as physicochemical. The procedure: The carbonic anhydrase activity was determined according to Wilbur. […] 147-154. […] (see FIG. 2).

The IC50 is the midpoint of a concentration-inhibition curve.

Chain of recombinant carbonic anhydrase (SEQ ID NO: 4) from Bacillus sp. P203 (A0ABT0XM38 entry or part of it): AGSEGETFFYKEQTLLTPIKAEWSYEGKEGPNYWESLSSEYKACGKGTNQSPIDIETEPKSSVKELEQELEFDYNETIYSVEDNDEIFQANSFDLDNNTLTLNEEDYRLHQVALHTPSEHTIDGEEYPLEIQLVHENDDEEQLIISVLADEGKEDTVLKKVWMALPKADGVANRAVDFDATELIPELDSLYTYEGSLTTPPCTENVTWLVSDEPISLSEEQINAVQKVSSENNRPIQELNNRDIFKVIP

Turning to `[N-]=[N+]=[N-]` [azide], the IC50 in series [1] turned out to be 500 µM.

B1: recombinant carbonic anhydrase: purified recombinant carbonic anhydrase (SEQ ID NO: 4) from strain Bacillus sp. P203 (protein)
chain: MRKTNVLLKSTMITTLLLSSTLLVTTPIYAHTETQQLSYKTLNDLLTEDGHSGWSYSGLTGPEYWGELNEDYKACSKGEEQSPIALQNEDIDNEKWSFDLDYEETEFSIENNGHTIQANVEGSSSNTLLLNDTEYNLVQFHFHSPSEHTLDDEYFEMEVHLVHQDEHANLAVLGVLIEEGEQNETLTDMWELMPGQQGEAAERITLNPSELVPSDLSTFQYDGSLTTPPCSEDVKWSVSDSTISLSPEQLEAFQDLYPNNYRPIQDLGNREVGFHY
modifications: Bacillus sp. P 203
notes: P203
As to B1, the “activity remaining after storage” value in series [2] (4° C. in buffer F for a week) is 97+/−4 % of original activity; in series [2] (room temperature (20° C.), buffer F) it was 95+/−4 % of original activity; in series [2] (−20° C. for one week in buffer F), 99+/−4 % of original activity. In addition, in series [2] (buffer F supplemented with 1 mM dithiothreitol (DTT)), the “effect of storage with DTT on stability” value is given as “stabilize the enzyme”. Moreover, the “stability at elevated temperature” value in series [2] (temperatures over 37° C., tested 4-60° C. for 1 and 17 h (FIG. 2)) was “rapidly decreased”.

Values taken from patent US8119387B2, “Polypeptides of strain Bacillus sp. P203” (Novozymes A/S, priority 2005, dated 2012).
